Test [1] has as its target T1, EMMPRIN (Homo sapiens, UniProt P35613).
T1 construct: cDNA coding for the human EMMPRIN extracellular domain (with a myc-HA-Flag-6His tag added at the C-terminus); made in house; host or cells: HEK293 (transfected)
T1 sequence (P35613 138-325 limits assumed): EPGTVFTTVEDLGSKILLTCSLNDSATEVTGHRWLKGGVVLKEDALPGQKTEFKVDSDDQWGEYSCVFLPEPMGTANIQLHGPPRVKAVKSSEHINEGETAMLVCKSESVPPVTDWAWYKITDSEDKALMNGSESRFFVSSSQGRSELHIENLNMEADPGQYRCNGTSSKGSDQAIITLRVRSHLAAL
The test can be described thus: Identification of EMMPRIN-binding proteins by immunoprecipitation and Western blotting. Conditions: culture supernatants mixed; HA and Myc antibody; FIG. 6. An excerpt:
EMMPRIN-binding proteins were identified by immunoprecipitation and Western blotting, for confirmation that EMMPRIN is a novel receptor for S100 protein. […] The S100 proteins used were S100A8 and S100A9 protein. HEK293 cells were transfected with plasmids coding for the proteins (with HA tags attached to the C-termini), and the proteins were isolated from the respective culture supernatants.
In order to analyze binding between EMMPRIN and S100A8 and S100A9 protein, the culture supernatants containing the respective proteins were mixed and reacted, and then HA antibody and Myc antibody were used for immunoprecipitation.
(In general: Immunoblotting shows a protein as a band on a membrane.)

The test system of test [2] is IL-8 (CXCL-8), TNFα, IL1-F9 and CXCL-1 expression. The test can be described thus: Cytokine expression in keratinocytes (NHEK) by real-time quantitative PCR. In kind it is cell-based, human. Particulars: S100A9-added sample with control siRNA (A9/LF); FIG. 4. Here is the method:
(§1) Using real-time quantitative PCR, it was then investigated whether addition of S100A9 also accelerates expression of IL-8 (CXCL-8), TNFα, IL1-F9 and CXCL-1, and whether suppressing expression of EMMPRIN has any effect on expression of these cytokines. The same method was also used to examine the effect of S100A9 stimulation on MMP-1 and MMP-10 expression.
(§2) Growth-phase NHEK, cultured in EpiLife™-KG2 (Cascade Biologies) were exposed for 3 hours after exchanging to the same culture medium containing and not containing 2 mM calcium chloride and S100A8 or S100A9 (10 μg/ml each), and a MagNA™ Pure mRNA extraction kit and a MagNA Pure™ device (Roche Diagnostics, Tokyo, Japan) were used for extraction of the mRNA. The obtained mRNA was reverse transcripted using SuperScript™ II (Invitrogen Corporation, Carlsbad, Calif., U.S.). Real-time quantitative PCR was performed on a LightCycler high-speed thermal cycler system using a LightCycler FastStart DNA master SYBR green I kit (Roche Diagnostics), according to the manufacturer's instructions. […] The expression level of each gene was quantitatively analyzed using LightCycler analysis software (NPL 11: Morrison T B et al., Biotechniques (1998)24:954-958, 960, 962). […]

In test [3] the test system is MMP-1 and MMP-10 expression. The test can be described thus: MMP expression in keratinocytes by real-time quantitative PCR. In kind it is cell-based, human. Conditions: FIG. 5. On the procedure: as §1, §2
The subject of test [4] is MMP-1 expression. The test can be described thus: Effect of soluble EMMPRIN on MMP expression in keratinocytes. In kind it is cell-based, human. An excerpt: It was therefore investigated whether soluble EMMPRIN actually accelerates expression of MMP.
It is believed that MMP expression was suppressed when soluble EMMPRIN and S100A9 were both present because S100A9 which induces MMP production was scavenged by soluble EMMPRIN, with both forming a bonded complex.

Turning to “S100A8: EF-hand calcium-binding S100 family protein”, in test [1], the “binding to EMMPRIN (band in Western blot after immunoprecipitation)” value was “only a band for EMMPRIN near 32 kDa was confirmed”.
With “S100A9: EF-hand calcium-binding S100 family protein, added to keratinocytes as stimulus”, the “binding to EMMPRIN (band in Western blot after immunoprecipitation)” value in test [1] is reported as “a band representing their bound form was confirmed near 47.5 kDa”. The “expression of cytokines (IL-8, TNFα, IL1-F9, CXCL-1) on addition of S100A9” value in test [2] is on record as “induced expressed of all of the cytokines”. In test [3], the “expression of MMP on addition of S100A9” value is recorded as “accelerated expression of MMP”. In addition, the MMP-1 expression entry in test [4] (S100A9 alone, FIG. 7) is “notably accelerated”.

B1: soluble EMMPRIN: purified recombinant human EMMPRIN extracellular domain with myc-HA-Flag-6His tag at the C-terminus (protein, UniProt P35613 138-323, looked up)
extracellular domain: EPGTVFTTVEDLGSKILLTCSLNDSATEVTGHRWLKGGVVLKEDALPGQKTEFKVDSDDQWGEYSCVFLPEPMGTANIQLHGPPRVKAVKSSEHINEGETAMLVCKSESVPPVTDWAWYKITDSEDKALMNGSESRFFVSSSQGRSELHIENLNMEADPGQYRCNGTSSKGSDQAIITLRVRSHLA
modifications: extracellular domain C-terminal myc-HA-Flag-6His tag
notes: purified recombinant human EMMPRIN extracellular domain with myc-HA-Flag-6His tag at the C-terminus
Regarding B1, the MMP-1-inducing effect result in test [4] (added to keratinocytes at 0.025, 0.25 and 2.5 μM, FIG. 7) was “virtually no MMP-1-inducing effect”. For the same molecule, in test [4] (both soluble EMMPRIN and S100A9 added to keratinocytes, FIG. 7), the “MMP1 expression-accelerating effect of S100A9” value is reported as “significantly suppressed”. In test [4] (results not shown), the IL-8 expression result is “significantly suppressed”, the MMP-10 expression entry is given as “significantly suppressed” and the TNFα expression result is reported as “significantly suppressed”.

(Values after US20130129845A1, “SCREENING METHOD FOR CHRONIC INFLAMMATION INHIBITORS OR CANCER METASTASIS INHIBITORS USING INHIBITION OF BINDING BETWEEN EMMPRIN AND S100A9 AS INDEX” (priority 2010, published 2013).)
